Test [1] addresses T1, Fhm, hTL1A(Q167R), soluble, CHO-expressed, residues 72-251 of SEQ ID NO:246 (human, UniProt O95150 72-251).
T1 construct: also called Fhm (CHO); FHM (CHO)
T1 chain: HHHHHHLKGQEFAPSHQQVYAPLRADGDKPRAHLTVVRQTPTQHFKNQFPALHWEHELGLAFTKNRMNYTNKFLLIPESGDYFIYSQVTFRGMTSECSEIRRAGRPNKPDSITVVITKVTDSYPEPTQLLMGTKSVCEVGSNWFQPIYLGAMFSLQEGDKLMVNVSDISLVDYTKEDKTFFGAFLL
The test is described as follows: ELISA, blocks FHM (10 pM) binding hDcR3-Fc; blocking of FHM binding to DcR3. How it is done:
(§1) The ability of antibodies to block human TL1A binding to its cognate receptors, the DR3 and DcR3 receptors, was measured using a competition sandwich ELISA. In addition, blocking of a human TL1A variant FHM (human TL1A Q167R) and the cynomolgus monkey (Macaca fascicularis) TL1A (MfTL1A) protein binding to the human DR3 or DcR3 receptors was measured in the same manner. Constant amounts of biotinylated human TL1A or FHM (both expressed with a 6-His tag in CHO cells) or biotinylated MfTL1A (expressed in CHO cells) were separately titrated with varying amounts of antibodies. The antibody-protein complexes were incubated in solution (1 hr, 25° C.) and then transferred to microtiter plates coated with human DR3 (hDR3) or human DcR3 (hDcR3) expressed as human IgG1 Fc fusion proteins. After one hour at 25° C. the wells were washed, and bound human or monkey TL1A was detected with streptavidin conjugated with horseradish peroxidase (HRP). Wells were developed with a TMB solution to produce a colorimetric reaction and quenched with aqueous sulfuric acid before reading absorbance at 450 nm on a Perkin-Elmer Victor X5 plate reader. A sigmoidal dose-response curve was fit to the data using the Prism™ data analysis package. […] Both fully human anti-hTL1A mAbs and comparator antibodies, i.e., control mAb1 (an anti-hTL1A antibody with heavy and light chain variable domains having the amino acid sequences corresponding to SEQ ID NOS:21 and 27, respectively, of US 2009/0280116) and control mAb3 (an anti-hTL1A antibody with heavy and light chain variable domains having the amino acid sequences corresponding to SEQ ID NOS:57 and 48, respectively, of US 2009/0280116), were included in the study. NB: No binding under the conditions tested; NT: Not tested. Concentrations of biotinylated soluble ligands: (1) 150 pM; (2) 500 pM; (3) 10 pM; and (4) 50 pM.

In test [2] the target is T2, cynomolgus monkey TL1A, soluble, CHO-expressed, residues 72-251 of SEQ ID NO:248 with N-terminal His6-tag (cynomolgus monkey (Macaca fascicularis), UniProt O95150 72-251 (human entry)).
T2 construct: also called MfTL1A; MfTL1A (CHO)
T2 chain: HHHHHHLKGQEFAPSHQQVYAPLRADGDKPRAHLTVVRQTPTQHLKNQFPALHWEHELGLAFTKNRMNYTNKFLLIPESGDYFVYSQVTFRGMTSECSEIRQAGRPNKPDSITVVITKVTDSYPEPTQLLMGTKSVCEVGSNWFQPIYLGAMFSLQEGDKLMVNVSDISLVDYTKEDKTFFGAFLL
The test can be described thus: ELISA, blocks MfTL1A (500 pM) binding hDR3-Fc. How it is done: as §1

In test [3] the target is T3, Fhm, hTL1A(Q167R), soluble, E. coli-expressed, residues 72-251 of SEQ ID NO:246 (human, UniProt O95150 72-251).
T3 construct: with or without N-terminal Met
T3 chain: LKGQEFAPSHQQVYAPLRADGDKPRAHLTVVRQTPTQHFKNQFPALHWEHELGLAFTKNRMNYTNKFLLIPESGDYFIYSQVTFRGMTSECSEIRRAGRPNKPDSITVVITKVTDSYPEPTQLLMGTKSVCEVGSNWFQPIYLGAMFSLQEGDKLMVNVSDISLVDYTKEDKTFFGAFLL
The test can be described thus: SPR 25C, mAb captured. The method, then:
(§2) Measurements were conducted on a T100 BIACORE™ instrument. […] Kinetic association (kₐ) and dissociation (kd) rate constants were determined by fitting the data to a 1:1 binding model using BIAevaluation 4.1 curve fitting software (BIAcore Life Sciences). Molar concentrations of TL1A/Fhm used in the data fitting assumed a monomeric state for TL1A in solution. Binding dissociation equilibrium constants (KD) and dissociative half-lives (t_{1/2}) were calculated from the kinetic rate constants as: KD (M)=kd/kₐ; and t_{1/2} (min)=[In2/(60*kd)].

The target of test [4] is T4, cynomolgus monkey TL1A, soluble, E. coli-expressed, residues 72-251 of SEQ ID NO:248 (cynomolgus monkey (Macaca fascicularis), UniProt O95150 72-251 (human entry)).
T4 construct: with or without N-terminal Met; also called MfTL1A (E. Coli)
T4 chain: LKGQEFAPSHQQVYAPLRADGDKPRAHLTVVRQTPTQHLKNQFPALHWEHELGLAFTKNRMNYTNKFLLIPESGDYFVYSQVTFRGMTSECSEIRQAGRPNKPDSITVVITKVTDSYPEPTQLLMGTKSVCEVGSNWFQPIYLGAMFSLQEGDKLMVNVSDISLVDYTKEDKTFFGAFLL
The test can be described thus: SPR 25C, mAb captured. The method, then:
as §2

The target of test [5] is T5, mouse TL1A, soluble, E. coli-expressed, residues 76-252 of SEQ ID NO:250 (mouse, UniProt Q5UBV8 76-252).
T5 construct: with or without N-terminal Met; also called mTL1A (E. Coli)
T5 sequence: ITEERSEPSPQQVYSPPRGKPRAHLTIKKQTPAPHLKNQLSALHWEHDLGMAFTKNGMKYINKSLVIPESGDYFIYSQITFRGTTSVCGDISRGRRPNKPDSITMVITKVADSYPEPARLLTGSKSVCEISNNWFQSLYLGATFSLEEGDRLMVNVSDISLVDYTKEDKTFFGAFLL
The test is described as follows: SPR 25C, steady state. How it is done:
Measurements were conducted on a T100 BIACORE™ instrument. […] Kinetic association (kₐ) and dissociation (kd) rate constants were determined by fitting the data to a 1:1 binding model using BIAevaluation 4.1 curve fitting software (BIAcore Life Sciences). Molar concentrations of TL1A/Fhm used in the data fitting assumed a monomeric state for TL1A in solution. […]

In test [6] the target is T4, cynomolgus monkey TL1A, soluble, E. …. The test is described as follows: SPR 37C, mAb captured. How it is done:
as §2

Test [7] deals with T2, cynomolgus monkey TL1A, soluble, …. The test is described as follows: ELISA, blocks MfTL1A (50 pM) binding hDcR3-Fc. The method, then:
as §1

Test [8] concerns the target T6, human TL1A, soluble, CHO-expressed, residues 72-251 of SEQ ID NO:244 with N-terminal His6-tag (human, UniProt O95150 72-251).
T6 construct: also called hTL1A; hTL1A (CHO)
T6 sequence: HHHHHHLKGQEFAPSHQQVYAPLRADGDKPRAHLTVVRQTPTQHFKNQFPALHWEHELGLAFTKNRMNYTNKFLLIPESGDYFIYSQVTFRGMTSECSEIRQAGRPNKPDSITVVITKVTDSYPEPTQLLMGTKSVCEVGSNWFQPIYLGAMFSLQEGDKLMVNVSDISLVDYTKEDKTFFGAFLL
The test is described as follows: ELISA, blocks hTL1A (150 pM) binding hDR3-Fc. How it is done: as §1

For test [9], the target named is T6, human TL1A, soluble, CHO-expressed, …. The test can be described thus: ELISA, blocks hTL1A (10 pM) binding hDcR3-Fc. The method, then:
as §1

In test [10] the target is T7, human DR3, full-length, expressed on HEK293 NFkB-luciferase reporter cells (human, UniProt Q93038 25-417).
T7 sequence: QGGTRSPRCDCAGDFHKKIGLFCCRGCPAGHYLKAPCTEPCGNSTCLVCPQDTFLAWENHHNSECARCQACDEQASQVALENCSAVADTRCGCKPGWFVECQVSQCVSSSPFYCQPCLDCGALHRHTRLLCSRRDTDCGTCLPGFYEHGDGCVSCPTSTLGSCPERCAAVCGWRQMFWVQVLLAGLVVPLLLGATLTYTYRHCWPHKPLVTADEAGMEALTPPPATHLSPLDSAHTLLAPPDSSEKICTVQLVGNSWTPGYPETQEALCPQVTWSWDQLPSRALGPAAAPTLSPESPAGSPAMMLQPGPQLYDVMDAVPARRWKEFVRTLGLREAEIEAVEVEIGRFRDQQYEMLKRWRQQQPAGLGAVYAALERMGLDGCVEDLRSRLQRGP
The test is described as follows: cell-based or functional assay.

Test [11] has as its target T1, Fhm, hTL1A(Q167R), soluble, …. The test is described as follows: ELISA, blocks FHM (150 pM) binding hDR3-Fc. How it is done: as §1
Test [12] shares this target. The test can be described thus: ELISA, blocks FHM (10 pM) binding hDcR3-Fc. How it is done: as §1

B1: H2M1805N (antibody, V domains shown)
VH: QVQLQQWGAGLLKPSETLSLTCAVYGGSFTGFYWSWIRQPPGKGLEWIGEINHRGNTNYNPSLKSRVTMSVDTSKNQFSLNMISVTAADTAMYFCASPFYDFWSGSDYWGQGTLVTVSS
VL: DIMLTQTPLTSPVTLGQPASISCKSSQSLVHSDGNTYLSWLQQRPGQPPRLLFYKISNRFSGVPDRFSGSGAGTDFTLKISRVEAEDVGVYYCMQATQFPLTFGGGTKVEIK
notes: chimeric hybridoma antibody: human variable regions, mouse constant regions (mouse Fc)
B1: the IC50 in test [1] came to 2.24 nM; in test [2], 0.013 nM; in [7], 1.14 nM; in test [8] it was 0.006 nM; in test [9] it was 0.012 nM. Also, the binding result in test [3] and in [5] was “no binding (tested: up to 100 nM)” in each case. For the same molecule, the Kd in [4] was 0.345 nM; in [6] it was 0.439 nM. Moreover, the t1/2 in test [4] was 67 min; in test [6] it was 36 min.

B2: full length human TL1A expressed on HEK293 cells (ligand)
chain: MAEDLGLSFGETASVEMLPEHGSCRPKARSSSARWALTCCLVLLPFLAGLTTYLLVSQLRAQGEACVQFQALKGQEFAPSHQQVYAPLRADGDKPRAHLTVVRQTPTQHFKNQFPALHWEHELGLAFTKNRMNYTNKFLLIPESGDYFIYSQVTFRGMTSECSEIRQAGRPNKPDSITVVITKVTDSYPEPTQLLMGTKSVCEVGSNWFQPIYLGAMFSLQEGDKLMVNVSDISLVDYTKEDKTFFGAFLL
Consider B2, for which, in [10], the “EC50 (cells), NFkB-luciferase reporter” value stood at 23500 cells.

B3: H2M1817N (antibody, V domains shown)
VH: QVQLQQWGAGLLKPSETLSLTCAVSGGSFSDYFWTWIRQPPGKGLEWIGEISHSGRTNYNPSLKSRVTISVDTSMSQFSLKMTSVTAADSAVYYCARDYPNWVFDYWGQGTLVTVSS
VL: EIELTQSPGTLSLSPGEGATLSCRASQSVFNSYLAWYQQKPGQAPRLLIYGASRRATGIPDRFSGSGSGTDFTLTISRLEPGDFAVYFCQQYGNSPLTFGGGTKVEIK
notes: as for B1
For the molecule B3, the IC50 was found to be 0.137 nM in [2]; 0.249 nM in test [11]; 0.666 nM in test [12]; 0.776 nM in test [7]; 0.154 nM in test [8]; 0.89 nM in test [9]. Besides, the Kd in test [3] was 0.451 nM; in test [4] it was 1.25 nM; in [6], 1 nM. Further, the t1/2 in test [3] amounted to 57 min; in [4] it was 37 min; in [6] it was 30 min. Moreover, the binding result in test [5] was “no binding (tested: up to 100 nM)”.

B4: H2M1681N (antibody, V domains shown)
VH: EVQLLESGGGLVQPGKSLRLSCAVSGFTFSTYGMNWVRQAPGKGLEWVSSISGTGRTTYHADSVQGRFTVSRDNSKNILYLQMNSLRADDTAVYFCTKERGDYYYGVFDYWGQGTLVTVSS
VL: DIQMTQSPSTLSASVGDRVTITCRASQTISSWLAWYQQTPEKAPKLLIYAASNLQSGVPSRFSGSGSGTEFTLTISSLQPDDFATYYCQQYHRSWTFGQGTKVEIT
Consider B4, for which the IC50 in [1] came to 0.234 nM; in [2], 0.061 nM; in test [7], 0.149 nM; in [8], 0.037 nM; in [9] it was 0.013 nM. The binding result in [3] and in test [5] was “no binding (tested: up to 100 nM)” throughout. For the same molecule, the figures for the Kd in [4] and in test [6] were 0.546 nM and 1.5 nM, respectively. Besides, the t1/2 in test [4] is 54 min; in [6], 14 min.

The values above are taken from patent US20140120109A1 (Regeneron, published 2014).
